{"source": "patent US20230357323A1", "about": "(University of Washington, published 2023)", "binders": {"B1": {"name": "human IL-23R (hIL-23R), custom construct with C-terminal avi and his tags, biotinylated (receptor, UniProt Q5VWK5 24-355, looked up, not shown: small tags and cut ends)", "chain": "GITNINCSGHIWVEPATIFKMGMNISIYCQAAIKNCQPRKLHFYKNGIKERFQITRINKTTARLWYKNFLEPHASMYCTAECPKHFQETLICGKDISSGYPPDIPDEVTCVIYEYSGNMTCTWNAGKLTYIDTKYVVHVKSLETEEEQQYLTSSYINISTDSLQGGKKYLVWVQAANALGMEESKQLQIHLDDIVIPSAAVISRAETINATVPKTIIYWDSQTTIEKVSCEMRYKATTNQTWNVKEFDTNFTYVQQSEFYLEPNIKYVFQVRCQETGKRYWQPWSSLFFHKTPETVPQVTSKAFQHDTWNSGLTVASISTGHLTSDNRGDIG", "modifications": "enzymatically biotinylated via the avi-tag", "notes": "immobilized on streptavidin tips in BLI, labeled target in FACS; also called human IL-23 receptor"}}, "key": {"[1]": {"biological_target": "B1", "experiment": "yeast display FACS, SIF incubation then labeled hIL-23R, 5-7 rounds", "experimental": "Yeast libraries were first incubated in SIF at 30C, then washed thoroughly and incubated with labeled hIL-23R, and cells retaining the highest binding signal (top 1-5%) were collected by FACS. Two rounds of selection were performed for each library, and the SIF incubation time and/or concentration of proteases were increased from first to second round. […] Indeed in several libraries we saw a large population of Myc-negative, binding-positive cells. In parallel, we performed two rounds of selection for binding to hIL-23R only, without pre-incubation in SIF. […] Best mutations were included in combinatorial libraries, sorted as above for 5-7 rounds after which individual clones were sequenced. Variants present in the final sorts were expressed in E. coli and characterized (SEQ ID NOS: 70-74 and 153-164).\nYeast strain EBY100 was transformed with each library and vector by electroporation and grow in minimal media selective for the yeast strain (-ura) and the transforming plasmid (-trp).²⁷ Expression was induced with 2% galactose. Surface expression was detected with anti-Myc-FITC (Immunology Consultants Laboratory) conjugate, and binding to biotinylated IL-23R was detected with streptavidin-PE (Invitrogen).\nSIF SSM and combinatorial libraries were prepared as follows: after 16-24 hours induction, yeast were spun down, washed with PBSF, resuspended in SIF (recipe described below) at an OD of 2.0, and incubated at 30° C. shaking for 30-90 minutes as noted. After SIF digest, cells were spun down and washed 4 times with 800 uL PBSF, manually aspirating the supernatant each time to ensure complete washing to remove proteases. SIF-treated cells were then treated with target protein as described above."}, "[2]": {"biological_target": "IL-23R on IL-23 reporter cells (Promega IL-23 Bioassay)", "sequence (Q5VWK5 whole entry)": "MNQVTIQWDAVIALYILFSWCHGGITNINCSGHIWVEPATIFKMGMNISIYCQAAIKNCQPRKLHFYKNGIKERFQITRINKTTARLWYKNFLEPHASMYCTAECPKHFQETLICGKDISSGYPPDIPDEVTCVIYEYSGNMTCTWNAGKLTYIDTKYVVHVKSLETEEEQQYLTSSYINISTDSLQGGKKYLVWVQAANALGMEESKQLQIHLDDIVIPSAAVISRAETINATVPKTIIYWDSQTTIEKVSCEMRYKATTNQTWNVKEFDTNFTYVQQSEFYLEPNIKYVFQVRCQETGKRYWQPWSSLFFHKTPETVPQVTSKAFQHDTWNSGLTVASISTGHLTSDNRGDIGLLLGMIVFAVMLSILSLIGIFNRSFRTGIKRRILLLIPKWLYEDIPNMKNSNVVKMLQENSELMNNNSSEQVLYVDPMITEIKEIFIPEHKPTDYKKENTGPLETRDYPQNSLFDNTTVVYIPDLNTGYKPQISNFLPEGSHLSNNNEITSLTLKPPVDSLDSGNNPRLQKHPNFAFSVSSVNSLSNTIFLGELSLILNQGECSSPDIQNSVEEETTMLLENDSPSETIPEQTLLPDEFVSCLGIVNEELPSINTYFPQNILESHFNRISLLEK", "experiment": "cell-based or functional assay"}, "[3]": {"biological_target": "IL-23R on IL-23 reporter cells (Promega IL-23 Bioassay)", "experiment": "cell-based or functional assay", "remark": "listed apart in the source"}, "[4]": {"biological_target": "B1", "experiment": "SPR"}, "[5]": {"biological_target": "B1", "experiment": "biolayer interferometry titration, biotinylated hIL-23R immobilised on streptavidin tips, 1:1 fit", "experimental": "(§1) Variants were first screened for relative binding to hIL-23R with biolayer interferometry (BLI). hIL-23R was immobilized on the BLI sensor tips and binding to each variant in solution at a constant concentration (50 nM) was measured to qualitatively determine relative performance of the variants. For the best-performing variants, binding constants (KD, including kₒₙ, and koff) were quantitatively determined with BLI titration experiments in triplicate.\n(§2) Qualitative and quantitative assessment of binding affinity was performed using biolayer interferometry (ForteBio Octet™ […] and associated software for analysis). Enzymatically biotinylated target protein (30 nM) was immobilized on streptavidin-coated sensor tips, then sequentially dipped in wells with: buffer only (baseline), inhibitor in solution (association), and buffer only (dissociation). Kinetic constants were determined from the mathematical fit of a 1:1 binding model."}, "[6]": {"biological_target": "B1", "experiment": "biolayer interferometry titration, biotinylated hIL-23R immobilised on streptavidin tips", "experimental": "as §1, §2"}, "[7]": {"biological_target": "T1, human IL-23 cytokine (p19/p40 heterodimer) (human, UniProt Q9NPF7 20-189; P29460 23-328)", "T1 construct": "recombinant human IL-23 (R&D 1290-IL) is named for the cell assay; also called native ligand", "T1 sequence (looked up) 1": "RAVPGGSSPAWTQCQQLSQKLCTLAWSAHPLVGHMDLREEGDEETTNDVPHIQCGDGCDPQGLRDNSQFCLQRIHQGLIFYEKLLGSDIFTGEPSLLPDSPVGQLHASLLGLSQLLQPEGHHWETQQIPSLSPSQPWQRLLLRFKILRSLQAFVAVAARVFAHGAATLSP", "T1 sequence (looked up) 2": "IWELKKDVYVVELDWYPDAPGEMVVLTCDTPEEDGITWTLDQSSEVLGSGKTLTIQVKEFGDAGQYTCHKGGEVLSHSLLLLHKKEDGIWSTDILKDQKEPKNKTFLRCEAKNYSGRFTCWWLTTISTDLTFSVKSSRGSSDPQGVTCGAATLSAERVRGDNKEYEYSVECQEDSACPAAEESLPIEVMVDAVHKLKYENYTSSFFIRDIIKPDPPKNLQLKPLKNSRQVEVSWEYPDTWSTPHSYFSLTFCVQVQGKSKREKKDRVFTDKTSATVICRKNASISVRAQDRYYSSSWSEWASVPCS", "experiment": "table of binding constants on hIL-23R; biolayer interferometry per paragraph 183 and paragraph 210, method not stated separately for this row", "experimental": "as §1, §2"}, "[8]": {"biological_target": "T1, human IL-23 cytokine (p19/p40 …)", "experiment": "method not stated here (FIG. 2E lists constants of the native ligand)"}, "[9]": {"biological_target": "B1", "experiment": "yeast display FACS"}, "[10]": {"biological_target": "B1", "experiment": "BLI titration, biotinylated hIL-23R on streptavidin tips", "experimental": "as §2"}}, "note": "No end group written: not given here.", "data": [{"binder": "B0402IA (designed binder) PLWQVFYLLNTCIKRTGDPTCKKLAKALRECLKPGDVKACKEVADKAMDYIRS", "values": [{"measurement": "binding result", "setting": "[1]", "result": "binds"}]}, {"binder": "B04dslf02IB (designed binder, purified form with C-terminal tag; also called B0402IB; BO4dslf02IB) PLWQVFYLLNTCIKRTGDPTCKKLAKALRECLKKGDLKACNELADKAVKYINSHHHHHH", "values": [{"measurement": "IC50 (read off the curve); IL-23-stimulated luciferase signal in IL-23 reporter cells [lower graph]", "setting": "[2]", "result": "~40", "unit": "nM"}, {"measurement": "Fold better than competitor (IC50 against that of PTG compound C, IL-23 reporter cell assay) [table]", "setting": "[3]", "result": 484, "unit": "fold"}, {"measurement": "IC50; inhibition of luciferase signal of IL-23 reporter cells stimulated with 8 ng/mL human IL-23 [table]", "setting": "[3]", "result": 16, "unit": "nM"}, {"measurement": "Kd", "setting": "[4]", "result": "< 0.001", "unit": "nM"}]}, {"binder": "B08 (designed binder) NLWQIFYVLNTIYKRTGDPTAKKLNKALREALKKHDEKATKELAKKATKYIRS", "values": [{"measurement": "Kd", "setting": "[5]", "result": 0.046, "unit": "nM"}, {"measurement": "koff", "setting": "[5]", "result": "4.6e-05", "unit": "s⁻¹"}, {"measurement": "kon", "setting": "[5]", "result": 990000, "unit": "M⁻¹ s⁻¹"}, {"measurement": "Kd", "setting": "[6]", "result": 0.046, "unit": "nM"}]}, {"binder": "rA11dslf02_M1P_R8Q_K35W (designed binder) PEPEKYLQELCKKYYEGKLSQQEAVEEIRKYARKWGLEAWKLVWYFMQCVKRDIHHHHHH", "values": [{"measurement": "Kd", "setting": "[4]", "result": 0.075, "unit": "nM"}]}, {"binder": "B0402ID (designed binder) ELWQVFYLLNTCIKRTCDPTCKKLAKALRECLKKGDLKACKEDAYKALDYIRS", "values": [{"measurement": "binding result", "setting": "[1]", "result": "binds"}]}, {"binder": "B0402IC (designed binder) PLWQIFYLLNTCIKRTGDPTCKVLSKALRECLKKGDVKACSELASKAEKYINS", "values": [{"measurement": "binding result", "setting": "[1]", "result": "binds"}]}, {"binder": "B1", "values": [{"measurement": "Kd", "setting": "[7]", "result": 1.69, "unit": "nM"}, {"measurement": "koff", "setting": "[7]", "result": 0.0013, "unit": "s⁻¹"}, {"measurement": "kon", "setting": "[7]", "result": 780000, "unit": "M⁻¹ s⁻¹"}, {"measurement": "Kd", "setting": "[8]", "result": 1.7, "unit": "nM"}]}, {"binder": "B0402SD (designed binder) PLWQIFYLLNTCIKRTGDPTCKKLIKALRECLKKGDPKACAELADKAMKYIMS", "values": [{"measurement": "binding result", "setting": "[1]", "result": "binds"}]}, {"binder": "B0402SE (designed binder) QLWQIFYLLNTCIKRTGDPTCKKLKKALRECLKKGDAKACKEAADKAVKYIMS", "values": [{"measurement": "binding result", "setting": "[1]", "result": "binds"}]}, {"binder": "B0402SG (designed binder) ELWQIFYLLNTCIKRTGDPTCKKLIKALRECLKKGDPKACAELAKKAMKYIMS", "values": [{"measurement": "binding result", "setting": "[1]", "result": "binds"}]}, {"binder": "B0402SF (designed binder) ELWQIFYLLNTCIKRTGDPTCKKLIKALRECLKKGDAKACSELADKAMKYIMS", "values": [{"measurement": "binding result", "setting": "[1]", "result": "binds"}]}, {"binder": "CRVCKNGFCVDARECWMAYYLLNQYN (designed binder, not fully specified (bridges); cysteine pairing not given here)", "note": "[23R_mini_14_C4]", "values": [{"measurement": "Fold better than competitor (IC50 against that of PTG compound C, IL-23 reporter cell assay) [table]", "setting": "[3]", "result": 16, "unit": "fold"}, {"measurement": "IC50; inhibition of luciferase signal of IL-23 reporter cells stimulated with 8 ng/mL human IL-23 [table]", "setting": "[3]", "result": 487, "unit": "nM"}]}, {"binder": "ASPELKETCERLERLGMERWLILWCKQRAEEG (designed binder)", "note": "[23R_mini_08]", "values": [{"measurement": "binding result", "setting": "[9]", "result": "binds"}]}, {"binder": "CKVKCGPVEFEATERWMCFYWYNKYC (designed binder, not fully specified (bridges); cysteine pairing not given here)", "note": "[23R_mini_17_C11]", "values": [{"measurement": "Fold better than competitor (IC50 against that of PTG compound C, IL-23 reporter cell assay) [table]", "setting": "[3]", "result": 27, "unit": "fold"}, {"measurement": "IC50; inhibition of luciferase signal of IL-23 reporter cells stimulated with 8 ng/mL human IL-23 [table]", "setting": "[3]", "result": 281, "unit": "nM"}]}, {"binder": "23R_B (designed binder, purified from E. coli for BLI) NLWQIFYQLSTILKRTGDPTAKKLLKALAEALKKGDEKALKELAKKATKYIRSHHHHHH", "values": [{"measurement": "Kd", "setting": "[5]", "result": 50, "unit": "nM"}, {"measurement": "koff", "setting": "[5]", "result": 0.015, "unit": "s⁻¹"}, {"measurement": "kon", "setting": "[5]", "result": 500000, "unit": "M⁻¹ s⁻¹"}, {"measurement": "Kd", "setting": "[10]", "result": 70, "unit": "nM"}]}, {"binder": "23R_A (designed binder, purified from E. coli for BLI) MESEKYLRELVKKYYEGKLSVQEAVEEVRKYARKKGLEAWMLTWMFMELVKRYIHHHHHH", "values": [{"measurement": "koff", "setting": "[5]", "result": 0.014, "unit": "s⁻¹"}, {"measurement": "kon", "setting": "[5]", "result": 560000, "unit": "M⁻¹ s⁻¹"}, {"measurement": "Kd", "setting": "[10]", "result": 26, "unit": "nM"}]}, {"binder": "B0402IE (designed binder) NLWYIFYLLNTCIKRTCDPTCKVLAKALRECLKKGDLKACSELADKAVDYIRS", "values": [{"measurement": "binding result", "setting": "[1]", "result": "binds"}]}]}
